The data set concerns the molecule itself. Nature of the data set: cryo-EM structure; GLIC in MSP1E3D1 lipid nanodiscs (asolectin at pH 7.5; DOPE:POPS:POPC 2:1:1 at pH 7.5, 5.5, 4.0 and 2.5), 150 mM NaCl, 1 mM EDTA; seven maps at 2.6-3.4 Å; homopentamer.

B1: GLIC, proton-activated prokaryotic ligand-gated ion channel from Gloeobacter violaceus (natural protein)
chain: QDMVSPPPPIADEPLTVNTGIYLIECYSLDDKAETFKVNAFLSLSWKDRRLAFDPVRSGVRVKTYEPEAIWIPEIRFVNVENARDADVVDISVSPDGTVQYLERFSARVLSPLDFRRYPFDSQTLHIYLIVRSVDTRNIVLAVDLEKVGKNDDVFLTGWDIESFTAVVKPANFALEDRLESKLDYQLRISRQYFSYIPNIILPMLFILFISWTAFWSTSYEANVTLVVSTLIAHIAFNILVETNLPKTPYMTYTGAIIFMIYLFYFVAVIEVTVQHYLKVESQPARAASITRASRIAFPVVFLLANIILAFLFFGF
notes: GLIC, Gloeobacter violaceus ligand-gated ion channel; expressed as a GLIC-MBP fusion from pET26, MBP removed with HRV-3C protease; Homopentamer; also called GLIC_(aso-pH7.5); GLIC_(pH7.5); source: E. coli C41, purified (DDM, amylose resin, SEC), reconstituted in lipid nanodiscs with MSP1E3D1
In the case of B1, the “stoichiometry N” value was 5.

For the origin of these results see publication PMC10997623, “Cryo-EM structures of prokaryotic ligand-gated ion channel GLIC provide insights into gating in a lipid environment” (Nature Communications, 2024).
